Test results from patent US20080194482A1, “Selective Apac2 Receptor Peptide Agonists” (priority 2005, published 2008).
Substitutions are numbered along the chain they refer to. Names and notes keep the numbering of the source. Numbered stars: 1 amine (or outer) side, 2 acyl side, 3 side chain; on linkers, the order of the positions; unused ones are H or OH. Square brackets hold non-standard residues; d marks the D form. Ends that are not written are not given here. * marks the point of attachment. Tyr(OMe) = O-methyl-tyrosine, COc1ccc(C[C@H](N[*:1])C(=O)[*:2])cc1; Orn = NCCC[C@H](N)C(=O)O; Hexanoyl = CCCCCC(=O)*; Aib = CC(C)(N)C(=O)O

T1: human VPAC2 receptor (human, UniProt P41587 24-438)
T1 sequence (looked up): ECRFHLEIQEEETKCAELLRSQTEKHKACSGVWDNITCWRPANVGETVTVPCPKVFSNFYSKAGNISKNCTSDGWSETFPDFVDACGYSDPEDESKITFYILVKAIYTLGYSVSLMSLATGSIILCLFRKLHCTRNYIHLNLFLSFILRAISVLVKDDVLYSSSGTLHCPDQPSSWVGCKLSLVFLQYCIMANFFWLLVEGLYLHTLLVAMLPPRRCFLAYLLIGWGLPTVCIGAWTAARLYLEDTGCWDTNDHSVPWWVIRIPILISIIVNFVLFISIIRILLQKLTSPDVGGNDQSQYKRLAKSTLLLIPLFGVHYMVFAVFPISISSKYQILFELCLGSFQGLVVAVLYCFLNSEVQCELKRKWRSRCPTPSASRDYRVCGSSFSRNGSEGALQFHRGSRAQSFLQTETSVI

T2: rat VPAC1 receptor (rat, UniProt P30083 31-459)
T2 sequence (looked up): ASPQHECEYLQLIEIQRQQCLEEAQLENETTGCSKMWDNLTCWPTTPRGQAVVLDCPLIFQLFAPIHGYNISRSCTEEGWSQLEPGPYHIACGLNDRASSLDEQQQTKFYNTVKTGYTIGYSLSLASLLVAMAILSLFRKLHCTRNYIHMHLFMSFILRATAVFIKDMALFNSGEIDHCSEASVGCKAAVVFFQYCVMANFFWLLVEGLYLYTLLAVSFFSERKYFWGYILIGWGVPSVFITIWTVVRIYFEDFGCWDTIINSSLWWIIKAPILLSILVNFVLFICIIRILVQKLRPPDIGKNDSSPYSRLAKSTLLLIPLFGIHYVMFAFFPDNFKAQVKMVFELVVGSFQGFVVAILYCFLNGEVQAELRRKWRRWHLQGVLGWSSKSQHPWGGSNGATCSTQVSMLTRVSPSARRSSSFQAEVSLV

T3: rat VPAC2 receptor (rat, UniProt P35000 23-437)
T3 sequence (looked up): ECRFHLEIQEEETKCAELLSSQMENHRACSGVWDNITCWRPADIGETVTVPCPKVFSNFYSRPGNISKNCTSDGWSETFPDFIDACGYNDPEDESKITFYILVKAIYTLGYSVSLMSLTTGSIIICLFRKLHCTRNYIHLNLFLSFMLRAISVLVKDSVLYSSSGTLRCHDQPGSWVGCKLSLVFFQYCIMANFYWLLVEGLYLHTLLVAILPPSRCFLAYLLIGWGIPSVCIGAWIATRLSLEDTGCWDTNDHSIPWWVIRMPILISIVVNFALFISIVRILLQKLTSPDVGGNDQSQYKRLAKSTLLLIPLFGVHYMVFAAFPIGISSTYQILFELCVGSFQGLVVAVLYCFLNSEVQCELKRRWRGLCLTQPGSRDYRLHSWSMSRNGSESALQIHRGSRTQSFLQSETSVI

B1: VPAC2 receptor peptide agonist P392 (peptide)
peptide: Hexanoyl-HSDAVFTDSYT[Orn]LR[Aib]QVAA[Aib]KYLQSI[Orn]N[Orn]GGPSSGAPPPS
B2: VPAC2 receptor peptide agonist P383 (peptide)
peptide: HSDAVFTDNYTXLRXQVAAXKYLSSIXNXGGPSSGAPPPS
modifications: N-terminal hexanoyl (C6); Orn at 12, 27 and 29; Aib at 15 and 20
B3: VPAC2 receptor peptide agonist P363 (peptide)
peptide: Hexanoyl-HSDAVFTDQYT[Orn]LR[Aib]QVAA[Aib]KYLQSI[Orn]Q[Orn]GGPSSGAPPPS
B4: VPAC2 receptor peptide agonist P389 (peptide)
peptide: B2 peptide with V17S, S24Q
modifications: N-terminal hexanoyl (C6); Orn at 12, 27 and 29; Aib at 15 and 20
B5: VPAC2 receptor peptide agonist P388 (peptide)
peptide: B2 peptide with A18S, S24Q
modifications: N-terminal hexanoyl (C6); Orn at 12, 27 and 29; Aib at 15 and 20
B6: VPAC2 receptor peptide agonist P382 (peptide)
peptide: B2 peptide with S24Q, I26S
modifications: N-terminal hexanoyl (C6); Orn at 12, 27 and 29; Aib at 15 and 20
B7: VPAC2 receptor peptide agonist P384 (peptide)
peptide: B2 peptide with L23S, S24Q
modifications: N-terminal hexanoyl (C6); Orn at 12, 27 and 29; Aib at 15 and 20
B8: VPAC2 receptor peptide agonist P387 (peptide)
peptide: B2 peptide with A19S, S24Q
modifications: N-terminal hexanoyl (C6); Orn at 12, 27 and 29; Aib at 15 and 20
B9: VPAC2 receptor peptide agonist P386 (peptide)
peptide: B2 peptide with K21S, S24Q
modifications: N-terminal hexanoyl (C6); Orn at 12, 27 and 29; Aib at 15 and 20
B10: VPAC2 receptor peptide agonist P362 (peptide)
peptide: Hexanoyl-HSEAVFTENYT[Orn]LR[Aib]QVAA[Aib]KYLQSI[Orn]N[Orn]GGPSSGAPPPS
B11: VPAC2 receptor peptide agonist P385 (peptide)
peptide: B2 peptide with Y22S, S24Q
modifications: N-terminal hexanoyl (C6); Orn at 12, 27 and 29; Aib at 15 and 20
B12: VPAC2 receptor peptide agonist P391 (peptide)
peptide: Hexanoyl-HSDAVFTDNYT[Orn]SR[Aib]QVAA[Aib]KYLQSI[Orn]N[Orn]GGPSSGAPPPS
B13: VPAC2 receptor peptide agonist P343 (peptide)
peptide: HSDAVFTDNYTXLRXQVAAXKYLQSIKNKRYGGPSSGAPPPS
modifications: N-terminal hexanoyl (C6); hR (homoarginine) at 12; Aib at 15 and 20
B14: VPAC2 receptor peptide agonist P368 (peptide)
peptide: Hexanoyl-HSDAVFTDNYTQLR[Aib]QVAA[Aib]KYLQSI[Orn]N[Orn]GGPSSGAPPPS
B15: VPAC2 receptor peptide agonist P369 (peptide)
peptide: Hexanoyl-HSDAVFTDNYTFLR[Aib]QVAA[Aib]KYLQSI[Orn]N[Orn]GGPSSGAPPPS
B16: VPAC2 receptor peptide agonist P371 (peptide)
peptide: Hexanoyl-HSDAVFTDNYT[Orn]LLAKLALQKYLQSI[Orn]N[Orn]GGPSSGAPPPS
B17: VPAC2 receptor peptide agonist P418 (peptide)
peptide: HSDAVFTEQYTXLRXQLAAXXYLQSIXXGGPSSGAPPPS
modifications: N-terminal hexanoyl (C6); Tyr(OMe) at 10 and 22; Orn at 12, 21, 27 and 28; Aib at 15 and 20
B18: VPAC2 receptor peptide agonist P393 (peptide)
peptide: B17 peptide with D3E
modifications: N-terminal hexanoyl (C6); Tyr(OMe) at 10; Orn at 12, 21, 27 and 28; Aib at 15 and 20
B19: VPAC2 receptor peptide agonist P397 (peptide)
peptide: B17 peptide with E8D, Q9N, L17V
modifications: N-terminal hexanoyl (C6); Orn at 12, 21, 27 and 28; Aib at 15 and 20
B20: VPAC2 receptor peptide agonist P357 (peptide)
peptide: B2 peptide with X12R, S24Q, X27K, N28X
modifications: N-terminal hexanoyl (C6); Aib at 15, 20 and 28; Orn at 29
B21: VPAC2 receptor peptide agonist P406 (peptide)
peptide: Hexanoyl-HSDAVFTDQYTR[Aib]R[Aib]QVAA[Aib]KYLQSIK[Aib]KGGPSSGAPPPS
B22: VPAC2 receptor peptide agonist P408 (peptide)
peptide: Hexanoyl-HSDAVFTDQ[Tyr(OMe)]TR[Aib]R[Aib]QLAA[Aib]KYLQSIK[Aib]KGGPSSGAPPPS
B23: VPAC2 receptor peptide agonist P370 (peptide)
peptide: Hexanoyl-HSDAVFTDNYTRLLAKLALQKYLQSI[Orn]N[Orn]GGPSSGAPPPS

Molecular target: T1, human VPAC2 receptor
Assay: cell-based or functional assay

Binder | Human VPAC2 Receptor: Alpha Screen (EC50; nM), cAMP generation [nM]
B1 | 0.21
B2 | 0.12
B3 | 0.27
B4 | 0.16
B5 | 2760
B6 | 0.33
B7 | 6.7
B8 | 0.47
B9 | 0.65
B10 | 0.58
B11 | 23.9
B12 | 0.48
B13 | 0.29
B14 | 1.09
B15 | 10.5
B16 | 0.13
B17 | 3.11
B18 | 0.31
B19 | 0.15
B20 | 0.23
B21 | 0.12
B22 | 0.12
B23 | 0.23

Molecular target: T1, human VPAC2 receptor
Assay: filter binding, human VPAC2 membranes, competition with 125I-VIP;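 note: assay plate incubated 1 h with shaking, then filtered, with filter-retained counts measured after adding scintillant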
Description: The filled plate is incubated for 1 hour with shaking.
The transfer from assay plate to filter plate is conducted. The blocking buffer is aspirated by vacuum filtration and washed two times with flush buffer. 90 μL is transferred from the assay plate to the filter plate. The 90 μL transferred from assay plate is aspirated and washed three times with 200 μL flush buffer. The plastic support is removed. It is dried for 1 hour at 60° C. 30 μL Microscint is added. The count is performed.

Binder | IC50 [nM]
B1 | 0.45
B2 | 5.01
B3 | 0.25
B4 | 0.82
B5 | 100
B6 | 2.17
B7 | 22.2
B8 | 1.39
B9 | 5.92
B10 | 1.91
B11 | 99.2
B12 | 3.67
B13 | 0.85
B14 | 28.6
B15 | 37.3
B16 | 0.34
B17 | 8.96
B18 | 0.74
B19 | 0.5
B20 | 0.32
B21 | 0.27
B22 | 0.48
B23 | 0.8

Molecular target: T2, rat VPAC1 receptor
Assay: cell-based or functional assay

Binder | Rat VPAC1 Receptor: DiscoveRx (EC50; nM), cAMP generation [nM]
B1 | 0.71
B2 | 1.68
B3 | 1.44
B4 | 4.4
B5 | > 2000
B6 | 8.21
B7 | > 600
B8 | 20.4
B9 | 4.34
B10 | 35.9
B11 | 96.8
B12 | 9.09
B13 | 2.62
B14 | 20.9
B15 | 130
B17 | 7.76
B18 | 16
B20 | 0.69
B22 | 0.35
B23 | 0.05

Molecular target: T3, rat VPAC2 receptor
Assay: cell-based or functional assay

Binder | Rat VPAC2 Receptor: DiscoveRx (EC50; nM), cAMP generation [nM]
B1 | 0.08
B2 | 0.18
B3 | 0.09
B4 | 0.21
B5 | 709
B6 | 0.37
B7 | 8.05
B8 | 0.4
B9 | 0.28
B10 | 1.22
B11 | 28.8
B12 | 0.5
B13 | 0.15
B14 | 1.33
B15 | 8.09
B17 | 0.57
B18 | 0.17
B20 | 0.07
B21 | 0.04
B22 | 0.04
B23 | 0.05
